This passage reports tyrosine phosphorylation of STAT3 in NHEK (Western blot) results from US20090104146A1.

For the assay, the target named is gp130/OSMRβ receptor complex (type II OSM receptor) on NHEK (human) (UniProt P40189). Nature of the assay: cell-based or functional assay.
Sequence of gp130/OSMRβ receptor complex (type II OSM receptor) on NHEK (human) (P40189 23-918, chain 1 of 2): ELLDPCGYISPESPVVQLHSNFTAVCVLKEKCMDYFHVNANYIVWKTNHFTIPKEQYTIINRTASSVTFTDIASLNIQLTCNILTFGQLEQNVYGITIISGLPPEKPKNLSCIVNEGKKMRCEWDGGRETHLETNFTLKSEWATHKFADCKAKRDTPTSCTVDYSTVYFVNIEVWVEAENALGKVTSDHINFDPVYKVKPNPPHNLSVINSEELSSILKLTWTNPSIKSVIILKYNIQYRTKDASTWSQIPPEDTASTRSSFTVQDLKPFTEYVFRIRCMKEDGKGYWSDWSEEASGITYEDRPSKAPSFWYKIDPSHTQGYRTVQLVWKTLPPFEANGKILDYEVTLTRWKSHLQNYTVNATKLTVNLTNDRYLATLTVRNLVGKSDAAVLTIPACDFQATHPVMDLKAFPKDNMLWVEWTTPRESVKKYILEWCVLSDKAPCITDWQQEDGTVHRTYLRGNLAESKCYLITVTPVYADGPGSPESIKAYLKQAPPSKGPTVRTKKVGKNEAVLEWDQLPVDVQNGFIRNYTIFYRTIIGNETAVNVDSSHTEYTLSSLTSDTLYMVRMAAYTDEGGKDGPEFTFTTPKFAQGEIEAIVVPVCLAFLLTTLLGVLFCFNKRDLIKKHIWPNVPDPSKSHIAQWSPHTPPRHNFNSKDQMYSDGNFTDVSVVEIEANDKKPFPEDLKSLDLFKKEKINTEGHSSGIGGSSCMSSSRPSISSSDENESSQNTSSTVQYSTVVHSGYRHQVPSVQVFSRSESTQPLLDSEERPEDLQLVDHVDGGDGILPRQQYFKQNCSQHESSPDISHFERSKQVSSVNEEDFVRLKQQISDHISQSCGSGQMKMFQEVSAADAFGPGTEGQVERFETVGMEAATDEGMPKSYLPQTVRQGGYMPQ
Sequence of gp130/OSMRβ receptor complex (type II OSM receptor) on NHEK (human) (Q99650 28-979, chain 2 of 2, further chain): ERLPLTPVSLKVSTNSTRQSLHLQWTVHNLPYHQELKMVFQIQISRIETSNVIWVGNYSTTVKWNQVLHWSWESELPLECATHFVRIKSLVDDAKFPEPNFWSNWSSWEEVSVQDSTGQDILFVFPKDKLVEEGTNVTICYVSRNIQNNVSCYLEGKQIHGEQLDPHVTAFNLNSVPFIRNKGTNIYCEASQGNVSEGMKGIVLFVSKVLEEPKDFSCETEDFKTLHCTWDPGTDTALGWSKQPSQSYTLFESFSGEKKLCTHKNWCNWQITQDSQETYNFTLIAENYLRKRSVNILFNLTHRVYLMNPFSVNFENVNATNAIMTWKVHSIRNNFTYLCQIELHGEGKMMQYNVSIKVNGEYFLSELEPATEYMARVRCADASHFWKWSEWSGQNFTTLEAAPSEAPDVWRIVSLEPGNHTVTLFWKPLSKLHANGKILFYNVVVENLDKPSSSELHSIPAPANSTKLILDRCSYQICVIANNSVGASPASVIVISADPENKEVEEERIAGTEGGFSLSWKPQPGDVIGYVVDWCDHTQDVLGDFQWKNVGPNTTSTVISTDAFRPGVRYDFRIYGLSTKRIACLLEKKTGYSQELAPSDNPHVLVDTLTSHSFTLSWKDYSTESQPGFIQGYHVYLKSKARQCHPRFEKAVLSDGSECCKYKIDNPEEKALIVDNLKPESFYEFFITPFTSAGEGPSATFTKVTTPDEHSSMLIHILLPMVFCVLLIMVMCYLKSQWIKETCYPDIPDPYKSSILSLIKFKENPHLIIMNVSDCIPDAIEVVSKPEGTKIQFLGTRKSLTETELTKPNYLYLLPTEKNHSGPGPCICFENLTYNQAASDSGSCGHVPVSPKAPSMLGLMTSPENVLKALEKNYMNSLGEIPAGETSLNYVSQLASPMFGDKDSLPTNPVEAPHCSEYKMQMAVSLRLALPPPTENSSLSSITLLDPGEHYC

Substance “Human recombinant oncostatin M (OSM) (from UniProt P13725 26-221) (ligand)” yielded a tyrosine phosphorylation of STAT3 in NHEK (Western blot) of 3 ng/mL.
